These results are taken from article PMC5111876 (Microbial Drug Resistance, 2016).

Like-named read-outs stand apart in the source and are kept apart here.

In general, stoichiometry N refers to the number of molecules, sites or subunits per partner or assembly.

Data set [1] deals with the molecule itself. The data set can be described thus: SEC. A general note: SEC sorts molecules by how far they enter the pores of the column.
Data set [2] concerns the molecule itself. The data set can be described thus: SEC-MALS.
Data set [3] concerns the molecule itself. The data set can be described thus: SEC-MALS. This is another data set of the same source.
Data set [4] concerns the molecule itself. The data set can be described thus: SEC. This is another data set of the same source.

B1: Bacillus subtilis GpsB T75D, full length (natural protein, B. subtilis, UniProt P0CI74 1-98, looked up)
chain: MLADKVKLSAKEILEKEFKTGVRGYKQEDVDKFLDMIIKDYETFHQEIEELQQENLQLKKQLEEASKKQPVQSNDTNFDILKRLSNLEKHVFGSKLYD
In the case of B1, the binding result in data set [1] is reported as “binds”.

B2: Bacillus subtilis GpsB T75E, full length (natural protein, B. subtilis, UniProt P0CI74 1-98, looked up)
chain: MLADKVKLSAKEILEKEFKTGVRGYKQEDVDKFLDMIIKDYETFHQEIEELQQENLQLKKQLEEASKKQPVQSNETNFDILKRLSNLEKHVFGSKLYD
In the case of B2, the binding result in data set [1] is reported as “binds”.

B3: Listeria monocytogenes GpsB, full-length wild type (natural protein, L. monocytogenes, UniProt Q8Y614 1-113, looked up)
chain: MTSEQFEYHLTGKEILEKEFKTGLRGYSPEDVDEFLDMVIKDYSTFTQEIEALQAENIRLVQELDNAPLRTSTQPAPTFQAAAQPAGTTNFDILKRLSNLEKHVFGNKLDDNE
With B3, the “stoichiometry N” value in data set [2] stood at 6.

B4: Listeria monocytogenes GpsB F91A F105A double mutant, full length (natural protein, L. monocytogenes, UniProt Q8Y614 1-113, looked up)
chain: MTSEQFEYHLTGKEILEKEFKTGLRGYSPEDVDEFLDMVIKDYSTFTQEIEALQAENIRLVQELDNAPLRTSTQPAPTFQAAAQPAGTTNADILKRLSNLEKHVAGNKLDDNE
With B4, the “stoichiometry N” value was found to be 3 in data set [3] and 2 in data set [2].

B5: Listeria monocytogenes GpsB F91A, full length (natural protein, L. monocytogenes, UniProt Q8Y614 1-113, looked up)
chain: MTSEQFEYHLTGKEILEKEFKTGLRGYSPEDVDEFLDMVIKDYSTFTQEIEALQAENIRLVQELDNAPLRTSTQPAPTFQAAAQPAGTTNADILKRLSNLEKHVFGNKLDDNE
Consider B5, for which, in data set [4], the binding result is “binds”.
